Measurements: the supplement of paper PMC9732359
± gives the uncertainty stated by the source.

assay: protein stability index of a GFP-peptide fusion (yeast GPS) (PSI 1-4); higher = more stable; sorted into four equal gates, so the index is relative within each strain; details: doa10∆
Method in brief: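 Tiled 17-residue peptides from yeast proteins were fused downstream of GFP on a plasmid that also expresses Cherry, and the pooled library was carried in yeast. Mid-log cultures grown in leucine-free medium were sorted into four equal gates by GFP/Cherry fluorescence ratio. Plasmids from each gate were PCR-amplified and Illumina-sequenced, and reads were assigned to strains by barcodes. Each peptide's protein stability index is the sum, over gates, of the gate's read frequency multiplied by its gate number.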

| Sequence | protein stability index |
| --- | --- |
| VHGKAPMLMANNDVFTI [SSN3] | 2.79 ± 0.068 |

same assay, conditions: pdr5∆

| Sequence | protein stability index |
| --- | --- |
| TNVSKQNDFLFSVGESL [ECM29] | 2.92 ± 0.071 |
| TPAAATSPIDIREKVAK [SNF2] | 2.84 ± 0.11 |
| TPAFGSNNTGNTAFGNS [YJL041W/NSP1] | 3.13 ± 0.081 |
| TPANTNNSTSNANTVFS [SWI1] | 2.75 ± 0.047 |
| TPEMNVTNNVEEGEFII [TAF14] | 2.43 ± 0.26 |
| TPISNEQTEGEPKKKRG [SRP68] | 3.27 ± 0.17 |
| TPKVVRSQDQENPAFLP [SEC65] | 2.57 ± 0.067 |
| TPNMVNSEISNLPKDKS [SSN2] | 3.08 ± 0.17 |
| TPRDRRKSVFAPLNFNP [SSN2] | 2.57 ± 0.063 |
| TPSSNSNSSELEPDYQA [MED1] | 2.96 ± 0.16 |
| TPTDVIGVVSLTNGVTE [RRP6] | 2.87 ± 0.07 |
| TPVQPDLSVTPQKSSSK [YAR002W/NUP60] | 3.15 ± 0.04 |
| TQAKKLYHHTTKTILSG [SRP72] | 2.86 ± 0.051 |
| TQHKVTQYKAGKASLFA [RPL42A] | 3.04 ± 0.062 |
| TQLQRGGTSDMNYLLDN [CSI1] | 2.82 ± 0.14 |
| TQSGGVRPFGVSTLIAG [PRE6] | 1.72 ± 0.12 |
| TQTSKEQEIENNGLPMK [ITC1] | 3.2 ± 0.12 |
| TREDVSPHYNSQKQTLI [SSN3] | 2.71 ± 0.05 |
| TRGPFHFRAPSRILYKA [RPL16B] | 2.43 ± 0.045 |
| TRINGLNSNNSIIGNKN [REC8] | 3.04 ± 0.072 |
| TRLWGSVYYHKGNFRTK [SNU114] | 3.46 ± 0.093 |
| TRQFEGRSNEIVKTTTK [PRP8] | 3.12 ± 0.07 |
| TRSAKKMVIAELLPHYP [YJR042W/NUP85] | 2.81 ± 0.087 |
| TRSKRLSQVYPTLVRSV [CSN12] | 2.1 ± 0.22 |
| TRSNPPFKRKMLLVDII [REC8] | 1.98 ± 0.087 |
| TRVHQLMLEDAVTEREV [MCD1] | 2.92 ± 0.16 |

| Sequence | protein stability index |
| --- | --- |
| TRYNRDYMLSMANIPER [SNU114] | 2.44 ± 0.055 |
| TSAGIMDHEEARRKHVS [RPS22A] | 2.73 ± 0.23 |
| TSCTIPKAVVDHINGSG [GAL11] | 2.78 ± 0.077 |
| TSGEAAALGMGLCMLGT [RPN2] | 2.95 ± 0.21 |
| TSIHSTISILAAPSGNY [RRP43] | 1.85 ± 0.033 |
| TSLLNKVLKSGSGVDSS [RRP42] | 2.88 ± 0.077 |
| TSLLYLSTLEPSTSITL [RPN9] | 1.89 ± 0.049 |
| TSRVFAKIISKAPEQFI [YML103C/NUP188] | 3.08 ± 0.14 |
| TSSKSSSLSAIIVFGYP [YDL088C/ASM4] | 2.06 ± 0.048 |
| TSSNIVLETHESGIKPY [RPT6] | 2.76 ± 0.061 |
| TSSQKEPFFLVTKITDM [SRB8] | 2.72 ± 0.071 |
| TTAEPKAKRAKTGSAST [TAF14] | 3.14 ± 0.093 |
| TTDDEEEPIKKLCYVLG [RET1] | 3.29 ± 0.18 |
| TTESSDLKEGLQDLSRY [GRR1] | 3.33 ± 0.11 |
| TTKLAFLVEYEGQENNY [SIR4] | 2.85 ± 0.068 |
| TTLTIMRILPRETDPLV [RPT4] | 2.62 ± 0.057 |
| TTRNGFMEAQGAGIQII [FAS2] | 2.31 ± 0.12 |
| TTSEKQEVTNEAPFLTS [GAL11] | 3.35 ± 0.076 |
| TVEGISKLLREHGYQSR [RPB2] | 2.97 ± 0.21 |
| TVHEMEEELKKLRDHEP [SMC4] | 3.26 ± 0.22 |
| TVIKFRAGVCEYNEDSR [RPN13] | 1.96 ± 0.071 |
| TVLADEFIAHRLGLIPL [RPB3] | 2.16 ± 0.12 |
| TVLESLGRLNKLRKIAI [LIN1] | 2.69 ± 0.049 |
| TVMYQRRSKMNPLWNAI [PRE4] | 3.18 ± 0.11 |
| TVTDDARIFEFPKTTVA [RPL18A] | 2.7 ± 0.048 |
| TVVISQKKVPDKLLDPT [SCL1] | 2.31 ± 0.085 |

| Sequence | protein stability index |
| --- | --- |
| TWEECVFFDDDPLYDIT [REC8] | 3.24 ± 0.14 |
| TYAAEIAHNISAKNRVV [RPL32] | 2.27 ± 0.052 |
| TYKYFEVILVDPQHKAI [RPL15A] | 2.09 ± 0.074 |
| TYVITKNGKIYLKHNSI [RET1] | 2.54 ± 0.046 |
| TYVLNTWTNSKIFIKDP [YML103C/NUP188] | 2.15 ± 0.046 |
| VAARGLDIPNVSLVVNF [PRP28] | 2.5 ± 0.096 |
| VAFDNINTHIETLAYNS [SNF2] | 2.85 ± 0.074 |
| VAGLEDKFRKACSSSGR [SIR3] | 2.93 ± 0.095 |
| VAHSSRLANLIDYKLRV [SMB1] | 3.26 ± 0.15 |
| VALTGLLIRSKTEDPKG [YML031W/NDC1] | 2.21 ± 0.042 |
| VANSTKAAFIRVNGSEF [RPT3] | 1.69 ± 0.044 |
| VANYSAMANAPGNNIPY [GAL11] | 3.25 ± 0.18 |
| VAPVSEIVNMVPSHVPQ [SIR2] | 2.96 ± 0.069 |
| VARFLHFNGIRRLDALV [ITC1] | 3.45 ± 0.11 |
| VASSTNFTSPTAVVNNA [SWI1] | 2.56 ± 0.12 |
| VCLMQISTRERDYLVDT [RRP6] | 3.4 ± 0.16 |
| VCQVTKFGLLLQVSAQE [ECM29] | 2.15 ± 0.044 |
| VDAGIALNSMCASIPIA [RRP46] | 1.63 ± 0.12 |
| VDEELGPSIYKTDPAGY [SCL1] | 3.35 ± 0.074 |
| VDFDGLDIKRVGSENVE [SNF12] | 3.32 ± 0.14 |
| VDFSKYNTNFNLLLREL [SRP72] | 3.24 ± 0.12 |
| VDGEAVGDEFKGYVFKI [RPS6A] | 3.79 ± 0.18 |
| VDIKGEDLHEKNDSAEV [NUT1] | 3.37 ± 0.2 |
| VDIYSLPLISTDVLEIS [YMR129W/POM152] | 2.58 ± 0.049 |
| VDIYTHFTSPIRRYCDV [DIS3] | 1.91 ± 0.055 |
| VDKNFDKLELYVLRNVL [MTW1] | 2.43 ± 0.078 |

| Sequence | protein stability index |
| --- | --- |
| VDLEEVMDTIQEQITLY [SSN8] | 3.18 ± 0.087 |
| VDPARRQILFKYPMYMQ [MED6] | 1.78 ± 0.076 |
| VDPASAPNHSPEIDNLD [RRP6] | 2.98 ± 0.074 |
| VDPLKSLEDKILRMGAF [RRI1] | 3.04 ± 0.14 |
| VDQNPLTMHKIIQLILW [SRB8] | 1.6 ± 0.086 |
| VDSNLPDDEKFTDENTI [RPC40] | 3.46 ± 0.21 |
| VDSQGLPYNWDALEMQW [ARP7] | 2.35 ± 0.07 |
| VDVKPKSPKERELEERA [RPC25] | 3.07 ± 0.17 |
| VEAIRRSNQYQRGKMHG [NUT2] | 2.64 ± 0.076 |
| VECAQHCIDYLRKNKLG [SMC4] | 1.19 ± 0.068 |
| VEEAHDFNMKLAINAKT [RPB2] | 3.03 ± 0.085 |
| VEESSEKKQKTESQDVE [DPB4] | 3.33 ± 0.12 |
| VELIESKINELSYYVEE [SMC4] | 3.42 ± 0.082 |
| VELPYGAHGYSGFYTFS [PRE1] | 2.32 ± 0.17 |
| VESVCQKLDILVAKLKK [SMC4] | 2.19 ± 0.051 |
| VEVIKQLSLDASKTNLR [GAL11] | 2.62 ± 0.073 |
| VEYKLTFVPTNSDKPRD [DIS3] | 1.31 ± 0.094 |
| VFLLLQAYFSRLELPVD [BRR2] | 1.31 ± 0.043 |
| VFLLTTRAGGLGINLVT [ISW2] | 1.7 ± 0.063 |
| VFSHAQTAVTCESCSTI [RPS27A] | 1.2 ± 0.076 |
| VFVDGEANWPLPVNIRR [RPO21] | 3.06 ± 0.085 |
| VGDEFKGYVFKISGGND [RPS6A] | 3.49 ± 0.13 |
| VGFWKDDGDDEDLLECL [MTR3] | 3.42 ± 0.19 |
